Experiment [1] addresses T1, human α9 integrin (human, UniProt Q13797 30-1035).
T1 sequence: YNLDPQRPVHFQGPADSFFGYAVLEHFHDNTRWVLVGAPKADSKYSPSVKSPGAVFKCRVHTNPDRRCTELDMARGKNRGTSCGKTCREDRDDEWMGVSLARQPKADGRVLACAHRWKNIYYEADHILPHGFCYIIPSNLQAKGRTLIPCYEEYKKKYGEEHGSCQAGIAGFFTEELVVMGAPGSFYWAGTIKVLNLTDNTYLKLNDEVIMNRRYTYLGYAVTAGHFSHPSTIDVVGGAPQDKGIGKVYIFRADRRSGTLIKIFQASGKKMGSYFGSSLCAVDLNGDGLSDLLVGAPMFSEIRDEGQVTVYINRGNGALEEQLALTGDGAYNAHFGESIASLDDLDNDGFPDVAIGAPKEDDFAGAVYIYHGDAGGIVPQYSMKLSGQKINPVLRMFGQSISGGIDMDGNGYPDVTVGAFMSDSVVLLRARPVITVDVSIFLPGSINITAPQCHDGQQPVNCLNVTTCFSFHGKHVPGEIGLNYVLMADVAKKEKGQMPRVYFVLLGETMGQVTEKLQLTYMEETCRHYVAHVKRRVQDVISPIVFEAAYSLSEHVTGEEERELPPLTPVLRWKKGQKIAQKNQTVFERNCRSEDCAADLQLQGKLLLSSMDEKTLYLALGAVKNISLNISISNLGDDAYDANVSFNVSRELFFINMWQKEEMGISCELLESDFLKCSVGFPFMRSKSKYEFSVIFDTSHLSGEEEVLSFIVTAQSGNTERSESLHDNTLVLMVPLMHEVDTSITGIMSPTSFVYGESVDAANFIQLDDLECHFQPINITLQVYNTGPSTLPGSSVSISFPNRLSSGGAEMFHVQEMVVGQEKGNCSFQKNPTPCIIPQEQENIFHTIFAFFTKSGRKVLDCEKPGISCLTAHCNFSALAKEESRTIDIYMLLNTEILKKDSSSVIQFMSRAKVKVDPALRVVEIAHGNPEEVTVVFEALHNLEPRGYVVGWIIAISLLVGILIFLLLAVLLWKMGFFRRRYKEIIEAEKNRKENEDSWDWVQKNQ
As to the kind of experiment: cell-based or functional assay.

The target of experiment [2] is T1, human α9 integrin. Description: FACS binding assay on CHO/huα9 cells. On the procedure:
Mouse K33N antibody was tested at various concentrations, starting at 1.67 μg/ml and serial 3-fold dilutions, for binding to CHO/huα9 cells. Geometric mean channel fluorescence values (MCF; Y-axis) are plotted at each antibody concentration tested (X-axis) in the figure. EC₅₀ values were calculated using GraphPad Prism (GraphPad Software, San Diego, Calif.).
Each antibody was tested at various concentrations, starting at 5 μg/ml and serial 3-fold dilutions, for binding to CHO/huα9 cells. Geometric mean channel fluorescence values (MCF; Y-axis) are plotted at each antibody concentration tested (X-axis) in the figure. EC₅₀ values were calculated using GraphPad Prism (GraphPad Software, San Diego, Calif.).
Binding of mouse, chimeric and humanized K33N antibodies to human α9 integrin was examined in a FACS binding assay with CHO/huα9 cells. Approximately 5×10⁵ CHO/huα9 cells/test were washed with FACS Binding Buffer (PBS containing 0.5% BSA and 0.05% NaN₃) and suspended in 200 μl of FACS Binding Buffer containing various amounts of test antibody. After 30 min on ice, the cells were washed with FACS Binding Buffer. The cells stained with mouse K33N were then suspended in 100 μl of 1/200-diluted FITC-labeled goat anti-mouse IgG polyclonal antibody (SouthernBiotech) in FACS Binding Buffer. The cells stained with chimeric or humanized K33N were suspended in 100 μl of 1/200-diluted FITC-labeled goat anti-human IgG polyclonal antibody (SouthernBiotech) in FACS Binding Buffer. After 30 min on ice, the cells were washed with FACS Binding Buffer, suspended in 200 μl of FACS Binding Buffer, and analyzed using a FACScan flow cytometer (BD Biosciences, Franklin Lakes, N.J.). […] Between ChK33N and HuK33N antibodies, the binding pattern was very similar to each other (FIG. 22).

For experiment [3], the target named is T2, human α4 integrin (human, UniProt P13612 34-1032).
T2 construct: whole, on cells; Expressed on CHO K1 cells and used as the negative screen for hybridomas; also called CHO K1 cells expressing human α4 integrin
T2 sequence (looked up): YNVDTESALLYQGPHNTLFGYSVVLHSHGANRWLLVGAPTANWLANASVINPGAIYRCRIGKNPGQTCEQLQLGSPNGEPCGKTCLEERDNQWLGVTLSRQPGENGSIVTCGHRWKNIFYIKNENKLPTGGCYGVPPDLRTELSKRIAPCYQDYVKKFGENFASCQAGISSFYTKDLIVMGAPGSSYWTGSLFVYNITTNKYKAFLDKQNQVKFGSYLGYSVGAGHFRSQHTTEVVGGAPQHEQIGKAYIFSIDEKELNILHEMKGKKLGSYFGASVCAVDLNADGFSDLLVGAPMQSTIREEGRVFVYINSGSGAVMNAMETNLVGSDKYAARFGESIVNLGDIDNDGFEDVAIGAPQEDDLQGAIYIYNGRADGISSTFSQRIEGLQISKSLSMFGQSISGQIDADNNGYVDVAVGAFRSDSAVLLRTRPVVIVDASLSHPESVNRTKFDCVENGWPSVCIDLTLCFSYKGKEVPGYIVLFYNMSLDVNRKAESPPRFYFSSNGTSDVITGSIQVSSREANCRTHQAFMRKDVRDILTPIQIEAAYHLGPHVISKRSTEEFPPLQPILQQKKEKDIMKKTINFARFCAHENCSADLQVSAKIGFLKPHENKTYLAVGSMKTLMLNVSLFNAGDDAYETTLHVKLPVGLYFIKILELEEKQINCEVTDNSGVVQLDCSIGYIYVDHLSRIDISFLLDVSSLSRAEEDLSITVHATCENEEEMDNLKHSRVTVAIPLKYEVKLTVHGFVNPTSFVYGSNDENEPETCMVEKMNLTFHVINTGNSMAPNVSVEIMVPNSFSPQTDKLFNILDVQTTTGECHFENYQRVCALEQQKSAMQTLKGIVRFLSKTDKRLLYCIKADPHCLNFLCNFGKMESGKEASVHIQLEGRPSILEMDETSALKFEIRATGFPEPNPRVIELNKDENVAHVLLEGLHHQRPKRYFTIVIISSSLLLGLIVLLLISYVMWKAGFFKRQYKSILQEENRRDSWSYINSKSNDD
Description: hybridoma screening on transfected cells. On the procedure: Mouse monoclonal antibodies against human α9 integrin were prepared according to the subtractive immunization method (by Williams C. V., et al., 1992, Biotechniques 12:842-847). Briefly, three Balb/c mice were injected intraperitoneally with NIH-3T3 cells expressing human α9 integrin (Human α9/NIH-3T3 cells) at 3×10⁶ per mouse. At one and two weeks after the injection, the mice were injected intraperitoneally with 3×10⁶ cells/mouse of Human α9/NIH-3T3 cells, followed by another intravenous injection of the same cells at 2×10⁶ cell/mouse one week later. Hybridomas were prepared by the methods well known in the art (see, for example, Harlow et al., Antibodies: A Laboratory Manual, (Cold Spring Harbor Laboratory Press, 2nd ed. 1988); Hammerling, et al., in: Monoclonal Antibodies and T-Cell Hybridomas, pp. 563-681 (Elsevier, N.Y., 1981). Hybridoma clones producing monoclonal antibodies that were immunospecifically reactive with Human α9/CHO-K1 cells expressing human α9 integrin and with human melanoma cells endogenously expressing human α9 integrin but not with CHO K1 cells expressing human α4 integrin were established and a hybridoma clone (i.e., K33N) producing monoclonal antibody immunospecifically recognizing human α9 integrin were isolated.

With “mouse anti human α9 integrin antibody Y9A2”, the IC50 of cell adhesion inhibition (G-361 cells to hTNC (AEIDGIEL)-BSA) in experiment [1] is 0.053 µg/mL.

B1: humanized K33N IgG1/κ antibody (antibody, V domains shown)
VH: QVQLVQSGAEVKKPGASVKVSCKASGYSFTSYYMNWVRQAPGQRLEWIGWIFPGSGNTKYNEKFKGKATLTADTSASTAYMELSSLRSEDTAVYYCARSWVSYERGYYFDYWGQGTLVTVSS
VL: DIQMTQSPSSLSASVGDRVTITCRASENIYYSLAWYQQKPGKAPKLLIYNANSLEDGVPSRFSGSGSGTQYTLTISSLQPEDFATYYCKQAYDVPYTFGQGTKVEIKR
notes: also called HuK33N
With B1, the “IC50 of cell adhesion inhibition (G-361 cells to hTNC (AEIDGIEL)-BSA)” value (“IC50 of cell adhesion inhibition” for short) in experiment [1] came out at 0.084 µg/mL. In experiment [2], this molecule showed a half-maximal effective concentration (EC50) of 0.151 µg/mL.

B2: mouse K33N monoclonal antibody (hybridoma FERM BP-10830) (antibody, mouse IgG1, V domains shown)
VH: QVQLQQSGPELVKPGASVKISCKASGYSFTSYYMNWVKKRPGQGLEWIGWIFPGSGNTKYNEKFKGKATLTADTSSSTAYMQVSSLTSEDSAVYFCARSWVSYERGYYFDYWGQGTSLTVSS
VL: DIQMTQSPASLAASVGETVTLTCRASENIYYSLAWYQQKQGKSPQLLIYNANSLEDGVPSRFSGSGSGTQYSMKINSMQPEDTATYFCKQAYDVPYTFGGGTKLEIK
notes: also called mouse K33N antibody
B2: the “IC50 of cell adhesion inhibition” value in experiment [1] was found to be 0.075 µg/mL. Besides, in experiment [2], a half-maximal response (EC50) required 0.104 µg/mL. Moreover, in experiment [3], the binding result is listed as “no binding”.

B3: chimeric K33N IgG1/κ antibody (antibody, V domains shown)
VH: B2 VH
VL: B2 VL
notes: Mouse K33N variable regions on human gamma-1 and kappa constant regions (vector pChK33N); also called ChK33N
Consider B3, for which the “IC50 of cell adhesion inhibition” value in experiment [1] stood at 0.09 µg/mL. For the same molecule, the response in experiment [2] was half-maximal at 0.143 µg/mL (EC50).
